Columns and labels:
[1] = Non-reducing CE-SDS (heterogeneity); assay type: physicochemical
Experimental: (§1) Analysis of the heterogeneity by Capillary Electrophoresis (CE). The sample was prepared in reducing and non-reducing labeling buffer before being submitted to the CE analysis. A summary of the Reducing-CE-SDS and Non-Reducing-CE-SDS results are shown in FIG. 13A/Table H and FIG. 13B/Table I, respectively: […]

antigen = molecular target: T1, antigen (Homo sapiens, UniProt Q14392); assay: Label-free kinetic binding assay on Gator
T1 sequence (Q14392 20-662): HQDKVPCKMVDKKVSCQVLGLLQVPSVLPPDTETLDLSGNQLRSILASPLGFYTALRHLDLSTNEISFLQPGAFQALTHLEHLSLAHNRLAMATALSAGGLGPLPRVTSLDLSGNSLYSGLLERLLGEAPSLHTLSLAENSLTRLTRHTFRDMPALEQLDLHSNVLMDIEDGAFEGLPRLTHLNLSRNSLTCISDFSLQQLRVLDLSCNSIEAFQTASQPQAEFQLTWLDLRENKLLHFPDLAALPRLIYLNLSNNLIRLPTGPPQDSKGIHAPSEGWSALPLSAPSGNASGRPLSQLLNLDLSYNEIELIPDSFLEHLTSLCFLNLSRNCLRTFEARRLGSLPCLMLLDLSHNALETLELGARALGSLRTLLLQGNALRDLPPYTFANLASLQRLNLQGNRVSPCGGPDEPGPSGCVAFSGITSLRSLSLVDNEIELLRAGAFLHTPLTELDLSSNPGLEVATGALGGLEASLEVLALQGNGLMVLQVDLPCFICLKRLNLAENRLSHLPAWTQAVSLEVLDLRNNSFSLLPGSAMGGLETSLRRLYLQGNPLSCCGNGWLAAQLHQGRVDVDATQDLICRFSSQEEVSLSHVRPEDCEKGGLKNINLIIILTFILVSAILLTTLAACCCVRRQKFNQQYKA
Experimental: Affinity measurement. Label-free kinetic binding assay was performed on Gator (similar to Octet).
Methods. Affinity was measured on Gator (ProbeLife, Palo Alto). In brief, the purified IgG sample was diluted in K buffer at 2 μg/ml, and the antigen was diluted at 5 μg/ml. The antibody-loaded anti-human Fc probes were dipped in antigen wells for 5 mins and then moved to K buffer wells for 5 mins. In the whole process, the sample plate was shaken at 1,000 rpm. The data analysis was carried out using Gator software (ProbeLife).

[2] = Reducing CE-SDS (heterogeneity); assay type: physicochemical; conditions: Reducing-CE-SDS
Experimental: as §1

[3] = Thermostability by DSF/SLS (UNcle); assay type: physicochemical
Experimental: Developability Analysis for PIIO-1 humanization leads. Antibodies were analyzed for thermostability by DSF/SLS. Samples were submitted to the UNcle system (Unchained Labs) for analysis. A temperature ramp of 1° C./min was performed with monitoring from 20° C. to 95° C. for DSF and SLS. UNcle measures SLS at 266 nm and 473 nm. Tm and Tagg were calculated and analyzed by using the UNcle Analysis Software. DSF: Differential scanning fluorimetry; SLS: Static light scattering; Tm: Melting temperature; Tagg 266: Thermal aggregation when SLS at 266 nm; Tagg 473: Thermal aggregation when SLS at 473 nm. A summary is shown below in Table F:
IgG is a multi-domain structure and each domain has its own melting Temperature (Tm). […] Fabs have Tm in a wide range, generally about 50-85° C., due to large sequence variation. Therefore, the Tm values measured by various analytical techniques are usually “apparent” transition temperatures rather than the real Tm for each domain. In the case of whole IgG, there are often 2-3 Tm values in DSF measurement, presenting some challenge in determining which Tm represents which domain.
Tagg is the temperature at which SLS starts to detect aggregation particles. Tagg266 measures SLS at 266 nm, which is more sensitive and suitable to detect smaller aggregation particles. Tagg473 measures SLS at 473 nm and is better to detect larger particles.

Baculovirus = Baculovirus (BV) ELISA for non-specific binding
Experimental: Baculovirus (BV) ELISA was employed as a preliminary assay to evaluate antibody's potential nonspecific binding risk.
In Baculovirus (BV) ELISA, the inventor used Rituxan Mab as reference. […] If a clone only has binding on BV, but not on 293 cells, it will be considered as having a low risk of non-specific binding.
Methods—Baculovirus ELISA. Plates are coated with 50 μl of 1:500 diluted Baculovirus sample in PBS in each well. Plates are kept at 4° C. for overnight. The plates are washed with 300 μL of wash buffer ×3 and 200 μl blocking buffer (1% BSA) is added at RT for 60 min. Plates are washed with 300 μl of wash buffer ×3 and 100 μl of diluted Abs are added at different concentrations/well, followed by RT incubation for 1 hr. Plates are washed with 300 μl of wash buffer ×6 and 100 μl of 1:5000 HRP conjugated second Ab in PBS is added followed by RT incubation for 1 hr. The plates are washed with 300 μl of wash buffer ×6. Developing buffer is added and the plate is read.

[4] = Aggregation potential by DLS analysis; assay type: physicochemical
Experimental: Aggregation potential by DLS analysis. DLS was performed on UNcle system (Unchained Labs). DLS was measured at 25° C. Data was calculated and analyzed using UNcle Analysis Software. DLS: Dynamic light scattering PDI: Polydispersity index, PDI=(standard deviation/mean hydrodynamic radius).
Dynamic Light Scattering (DLS) is used to detect aggregation in the antibody sample. “Mode diameter” is protein particle diameter and “mass percentage” is the amount of each size fraction in percentage. “PDI” is Polydispersity Index; the higher this index, the more polydispersity in the sample is. […] Peak 1 is the major peak and represents the IgG monomer. The inventor takes “Peak 1 mass percentage” and “PDI” value into consideration in selecting a lead.

Ag(−) cell = assay: FACS analysis with Ag(−) cell (non-specific binding); conditions: 5 ug/ml
Experimental: Methods—FACS analysis. Cell preparation: Cell were harvested and washed with PBS+2% FBS for one time. Cell density was adjusted to 1.5E6/mL in PBS/2% FBS. Cell were added to 96 U-bottom well plates at 100 μL/well. Antibody samples preparation: Antibody in supernatant was adjusted to 10 μg/mL using PBS+2% FBS, with serial 5 times dilution performed to obtain 3 concentrations of antibody solution. The blank was PBS+2% FBS. Antibody solutions were placed into 96 U-bottom well plates at 100 μL/well in the same arranging pattern as the cell preparation. Incubation: The antibody samples (100 μl) were mixed with the cells (100 μl), and incubated at RT for 1 h, then centrifuged the plate for 3 min at 1000 rpm (swing bucket). The supernatant was pipetted and the cells were washed with PBS+2% FBS for one time. Incubation with the secondary antibody: Cy3-Conjugated AffiniPure Goat Anti-Human IgG was diluted 250× by PBS+2% FBS, and added to the 96 U-bottom well plate with 100 μl/well, then incubated at RT for 30 min. After that, the plate was centrifuged at 1000 rpm for 3 min and the supernatant was pipetted out. The cell was washed with PBS+2% FBS twice. Cells were re-suspended in 200 μl PBS+2% FBS and analyzed on FACS. The MFI of total live cells were used as binding signal.
Methods—heat treatment. Culture supernatant was serial diluted to the indicated concentration of IgG with cell media and heated at 70° C. for 5 mins on a PCR machine, then quickly cooled down to room temperature.

[5] = IgG 2 μg/ml on anti-human Fc probes, antigen 5 μg/ml
[6] = ramp 1° C./min, 20° C. to 95° C.

B1: H1L1: humanized PIIO-1 antibody, VH SEQ ID NO: 20 and VL SEQ ID NO: 23 (antibody, V domains shown)
VH: QVQLQESGPGLVKPSQTLSLTCTVSGYSITSDYAWNWIRQFPGNKLEWMGYISYSGSTSYTPSLKSRVTISRDTSKNHFSLKLSSVTAADTAVYYCAKSGGDYYGSSSYWYFDVWGQGTMVTVSS
VL: DIVLTQSPSSLAVSLGERATMNCKSSQSLLNSRSQKNYLAWYQQKPGQPPKLLIYGASTRGSGVPDRFSGSGSGTDFTLTISSLQAEDVAVYYCQNDHSYPFTFGQGTKLEIKR
With B1 the “Main Peak (%)” value [1] was 97.6%, the “OTHER (%)” value [1] was 2.4% and the “KD value compared with the chimeric” value (antigen) was “same KD value to the chimeric”. It also gave an Rmax (antigen; [5]) of 0.791, a koff (antigen; [5]) of 0.00081 and a kon (antigen; [5]) of 1.01E+05. The “OTHER (%)” value [2] was 0.9%, the “PK#1 (%)” value [2] was 5.6% and the “PK#2 (%)” value [2] was 23.2%. The “PK#3 (%)” value [2] was 70.4%, the “SLS Tagg 266” value ([3]; SLS at 266 nm) was 74.2 °C and the “SLS Tagg 473” value ([3]; SLS at 473 nm) was 74.9 °C. The “DSF TM2” value [3, 6] was 83.7 °C, the “DSF Tm1” value [3, 6] was 70.2 °C and the “BV ELISA with purified IgG, raw BV binding data” value (from here on “BV ELISA with purified IgG”) (Baculovirus; Ab. Conc. 0.15625 ug/ml) was 15.0. The “BV ELISA with purified IgG” value (Baculovirus; Ab. Conc. 0.3125 ug/ml) was 16.2, the “BV ELISA with purified IgG” value (Baculovirus; Ab. Conc. 0.625 ug/ml) was 14.7 and the “BV ELISA with purified IgG” value (Baculovirus; Ab. Conc. 1.25 ug/ml) was 16.0. For the same molecule, the “BV ELISA with purified IgG” value (Baculovirus; Ab. Conc. 2.5 ug/ml) was 18.3, the “BV ELISA with purified IgG” value (Baculovirus; Ab. Conc. 5 ug/ml) was 24.9 and the “BV ELISA with purified IgG” value (Baculovirus; Ab. Conc. 10 ug/ml) was 52.7. For the same molecule, the “BV ELISA with purified IgG” value (Baculovirus; Ab. Conc. 20 ug/ml) was 157.2, the “PDI compared with WT” value [4] was “slight worse than WT” and the “Peak 1 Mass” value ([4]; DLS at 25° C.) was 99.95%. For the same molecule, the “Peak 1 Mode Diameter” value ([4]; DLS at 25° C.) was 9.68 nm, the “Peak 1 PDI” value ([4]; DLS at 25° C.) was 1.228 and the “Peak 2 Mass” value ([4]; DLS at 25° C.) was 0%. For the same molecule, the “FACS with Ag(−) cell (MFI)” value (Ag(−) cell; Heating) was 3.36 and the “FACS with Ag(−) cell (MFI)” value (Ag(−) cell; Non-Heating) was 3.31.

— patent US20240425571A1, “GLYCOPROTEIN A REPETITIONS PREDOMINANT (GARP)-BINDING ANTIBODIES AND USES THEREOF” (OHIO STATE INNOVATION FOUNDATION, priority 2021, published 2024)
